Test results as given in US6861234B1, “Method of epitope discovery” (MannKind Corporation, priority 2000, dated 2005).

Molecular target: HLA-A2.1 (Homo sapiens, UniProt P04439, D140Y/D185E/D98H/E176V/E277Q/G131W/G231S/I119V/I121R/I166T/I218V/L300P/L318F/N151K/N90K/P208A/P217A/Q86G/Q94H/R138H/R169H/T345S)
Assay: T2 cell HLA-A2.1 stabilisation (peptide binding) assay by flow cytometry, method of Stauss et al.
Assay type: cell-based
Conditions: T2 cells, β2 microglobulin 5 μg/ml, peptides at 100, 10, 1 and 0.1 μg/ml, 4 hours 37° C., W6/32 + FITC anti-mouse IgG, FACScan; FIG. 3
Excerpt: The epitope is synthesized and tested for its ability to bind a MHC receptor. For example, in one preferred assay, cells displaying the MHC I receptor can be used to measure the binding affinity of candidate peptides labeled with a radionuclide. Another preferred approach measures the ability of a peptide to bind to an MHC I receptor using a cell culture-based assay. In this assay, cells lacking transporters associated with antigen processing (TAP) are used to determine whether or not a candidate peptide has the ability to bind to the MHC I receptor. […] When the cell is flooded with exogenous peptide that can bind to the MHC I cleft, expression of the receptor is restored. This can be monitored by several means such as RIA, FACS, and the like. Using TAP^− cells, one of skill in the art can screen large numbers of potential candidate peptides for receptor binding without having to perform detailed binding affinity analysis.
Binding of a candidate epitope to HLA-A2.1 was assayed according to the method of Stauss et al., (Proc Natl Acad Sci USA 89(17):7871-5 (1992)). […] Peptides were added at 100, 10, 1 and 0.1 μg/ml. The plate was rocked gently for 2 minutes and then incubated for 4 hours in a 5% CO2 incubator at 37° C. After the unbound peptide was removed by washing twice with IMDM, a saturating amount of monoclonal antibody W6/32 (Sigma) was added. […]

FLPWHRLFLL (Homo sapien) [tyrosinase 207-216]
binding to HLA-A2.1 (surface HLA-A2.1 molecules stabilized by peptide binding, fluorescence): bind HLA-A2.1 to a similar extent as the known A2.1 binder FLPSDYFPSV
